Results taken from publication PMC4241043.

Key:
[1] = target: protein FAF on the surface of F. magna strain ALB8 (F. magna (endogenous in strain ALB8)); experiment: radioligand binding
[2] = target: FAF-expressing strains (ALB8, L3410, 1462 and 2133); experiment: radioligand binding
[3] = target: protein FAF (F. magna adhesion factor), recombinant, amino acids 28-616 (F. magna); experiment: SPR

Sequence of galectin-7 (P47929 whole entry, the tested form may be a part): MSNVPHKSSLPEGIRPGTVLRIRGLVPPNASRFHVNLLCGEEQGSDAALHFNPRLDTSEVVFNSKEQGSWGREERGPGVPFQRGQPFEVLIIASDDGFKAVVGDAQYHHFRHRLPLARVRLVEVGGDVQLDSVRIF

Row | Substance | percent binding of 125I-labelled fragment [1] [%] | percent of added radiolabelled galectin-7 bound [2] [%] | Kd [3] [nM]
1 | rF16, N-terminal half of fibrillin-1 (domain or fragment) | 24 | – | –
2 | rFBN2-2, N-terminal half of fibrillin-2 (domain or fragment) | 17 | – | –
3 | galectin-7 (from UniProt P47929 1-136) (natural protein) | – | 20 to 30 | 0.53
